This note sets out measurements from the supplement of paper PMC12764529.

Data set [1] is described as follows: folding stability dG unfold from trypsin proteolysis; higher = more stable. Summed up: (§1)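 Mini-proteins designed to be under 80 residues and free of cysteine were carried in a PA-tagged cDNA display construct and digested with trypsin and with chymotrypsin. Each protease was applied at 11 threefold-diluted concentrations, alongside a no-protease condition, before sequencing. K50 came from Bayesian fitting of the sequencing counts, and unfolding free energy was obtained by comparing it with a sequence-predicted unfolded-state K50 and a shared folded-state K50, for each protease separately or for both together. Designs were retained only if their AlphaFold2 dimer inter-PAE exceeded 15.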

A short description of data set [2]: folding stability dG unfold from chymotrypsin proteolysis; higher = more stable. In short, it runs like this: as §1
Data set [3] is described as follows: folding stability dG unfold (combined trypsin and chymotrypsin); higher = more stable. Summed up:
as §1

± gives the half width of the 95% confidence interval.

Turning to “SAMLTILSVETHTLPNGEEIVTVTLKTPDLETLDALLAELGLTGTRDPDDPQVVTITTSREKVQEIKEKSAG [r14_777_JUSTAS]”, the “folding stability dG unfold” value in data set [1] is 3.34 ± 0.14 kcal/mol; in data set [2], 4.71 ± 0.2 kcal/mol; in data set [3] it was 4.57 ± 0.3 kcal/mol.
The matching figures for “SAMMKAEIVEIKFDPKTKKLTIKFPDGSKLEIKPGETIKIKIKVTVFNEETGKLEEKEITLTLKLPEGLSAG [r14_366_TrROS_Hall]”: 2.31 ± 0.27 kcal/mol, 2.96 ± 0.1 kcal/mol and 2.91 ± 0.43 kcal/mol.
The like results for “SAMPEKRFYTYEIPIPPGFKADEPFVGTVTLEEKTLPIKIGSIPDVPPDATVRLTVDLDTAEFRVELLPSAG [r14_554_TrMRF]” were, in that order, 0.91 ± 0.1 kcal/mol, 1.3 ± 0.087 kcal/mol and 1.16 ± 0.2 kcal/mol.
On to “SAMRIEIVRDPETGELVVRVVLPREEAEEAAEELARRLAEAGLEVEVKVVRIEETDGETRVVVEIKVKPSAG [r14_345_TrROS_Hall]”, for which the “folding stability dG unfold” value was determined as 3.74 ± 0.11 kcal/mol in data set [1], 2.88 ± 0.061 kcal/mol in data set [2] and 3.3 ± 0.1 kcal/mol in data set [3].
The matching figures for “SAMRIVVPYRETLRLTGLPEDTPLEEFRERFERIFRRLMERGVRPVRIEIYEIGDERYIVVEIETPGGASAG [r14_158_TrMRF]”: 2.907 ± 0.019 kcal/mol, 4.042 ± 0.017 kcal/mol and 3.62 ± 0.041 kcal/mol.
The like results for “SAMSEKDMEPIETFELPETNVKIELYYNKKTKKYVIKIKNKKTKKTKTIVIKSKDGKITLEELKKLIKKSAG [r14_948_TrROS_Hall]” were, in that order, 2.93 ± 0.24 kcal/mol, 3.42 ± 0.077 kcal/mol and 3.61 ± 0.31 kcal/mol.
The matching figures for “SAMSLEDMTPEELEELVKELIEKLREELEKEGKTIKPGETIEIEIEVKGKKLKIKITVDKDGNIKIEVESAG [r14_501_TrROS_Hall]”: 2.87 ± 0.2 kcal/mol, 3.03 ± 0.084 kcal/mol and 2.97 ± 0.092 kcal/mol.
For the sequence “SAMSVKTYSSTSVDPKTGKTYTTTTTVTPKPEPPWLVTTTTYLVDPATGTTTLLSTTTTTLDPNDPTLLSAG [r14_939_JUSTAS]”, the “folding stability dG unfold” value in data set [1] stood at 2.11 ± 0.071 kcal/mol; in data set [2] it was 2.67 ± 0.11 kcal/mol; in data set [3], 2.45 ± 0.084 kcal/mol.
Take “SAMTKTETFTFDDVEITVTTTEVTLPNGEKKDVYTLTKYTVDPSTGTTTPSSKTFSSKEEMEAALKASLSAG [r14_500_JUSTAS]”: the results for the “folding stability dG unfold” value in data set [1], in data set [2] and in data set [3] were 3.6 ± 0.27 kcal/mol, 4.036 ± 0.04 kcal/mol and 3.97 ± 0.16 kcal/mol, respectively.
The like results for “SAMTLTLEFENLKDLTEEEIEEALKEAGLPGVKILGIKKTSEKWTITIAYDSSTPKEKIEAAIKKAVAESAG [r14_657_JUSTAS]” were, in that order, 5.03 ± 0.35 kcal/mol, 4.64 ± 0.13 kcal/mol and 4.56 ± 0.18 kcal/mol.
The matching figures for “SAMTLTLEIELDGVRVRLEAELELVLNEDGSLELKLKLKIEVEPLPPPKEVEVEEEEEEVEEVEFLPEESAG [r14_341_TrROS_Hall]”: 3.82 ± 0.31 kcal/mol, 4.61 ± 0.28 kcal/mol and 4.44 ± 0.26 kcal/mol.
The matching figures for “SAMTTTTSVDPASGSSTVTTTEIIEKPAGKLPNGTKLPPVKVKKTTTTTYAPNGTKLSTTTTTTPVPLGSAG [r14_246_JUSTAS]”: 1.01 ± 0.064 kcal/mol, 0.67 ± 0.11 kcal/mol and 0.874 ± 0.086 kcal/mol.
For “SAMTVTSSVTTQPVPDSSDTVTYTNITVTIGNQTVTYTETVTYSSTDPTLRTVTTLLPDGTTVTTTVPVGSA [r9_897_JUSTAS]”, the results for the “folding stability dG unfold” value in data set [1], in data set [2] and in data set [3] were 1.94 ± 0.1 kcal/mol, 2.6 ± 0.084 kcal/mol and 2.18 ± 0.13 kcal/mol, respectively.
The like results for “SAMVEVRIEYDEETGEIRIEVRAEEEGEELTEEEIEELARELAEELGLPVEIKEIRVEKAPEVEEVVLESAG [r14_556_TrROS_Hall]” were, in that order, 1.05 ± 0.18 kcal/mol, 0.757 ± 0.1 kcal/mol and 0.884 ± 0.3 kcal/mol.
The matching figures for “SAMVLKVEEEPFPPNAKREVKEIRKDPNSDNLFKVKIELEKSPDPSVTSAKVITIPPDGSKKVEEKVLESAG [r14_10_JUSTAS]”: 0.514 ± 0.27 kcal/mol, 0.47 ± 0.19 kcal/mol and 0.508 ± 0.59 kcal/mol.
The like results for “SAMVLRLVVTVTGKIGDSLSTTTITREVSLEEYSEEELEALAEAVADAIRAANPEATVSLSILPEEELESAG [r14_723_JUSTAS]” were, in that order, 2.47 ± 0.074 kcal/mol, 2.565 ± 0.02 kcal/mol and 2.58 ± 0.097 kcal/mol.
For “SAMVSVTELPDGGVLATFPLPDGHPATAVFDPADLKPSVAYFPNGLRAVLRVTPDGRVELLAVEDVPPASAG [r14_877_TrMRF]”, the “folding stability dG unfold” value in data set [1] is 0.892 ± 0.023 kcal/mol; in data set [2], 0.963 ± 0.1 kcal/mol; in data set [3], 0.943 ± 0.052 kcal/mol.
The like results for “SAMVVTYDPATGKITVNVTLYVEEPLTPEERAALAAAIKAALAAAHPDVDVTVTLHPAPSPEEVEKLAASAG [r14_406_JUSTAS]” were, in that order, 2.92 ± 0.14 kcal/mol, 2.23 ± 0.058 kcal/mol and 2.47 ± 0.12 kcal/mol.
The like results for “SAMVYEFPFETEEEAREKAREVLLEKLGASPEEEKVELDIEIEIREDPETGKKLATVTVPKVTVSPKKSSAG [r14_467_JUSTAS]” were, in that order, 0.0292 ± 0.11 kcal/mol, 0.411 ± 0.099 kcal/mol and 0.318 ± 0.086 kcal/mol.
For “SAMVYPYLLRVYLPGSGEVVYFPASSLEEAVELLEEVAALPNVNSVDLYTPDGTKVHFLIDVPPEAFEESAG [r14_747_TrMRF]”, the “folding stability dG unfold” value came out at 2.67 ± 0.12 kcal/mol in data set [1], 2.891 ± 0.022 kcal/mol in data set [2] and 2.77 ± 0.066 kcal/mol in data set [3].
The like results for “SAMYKIRLKNGEEIELEGMSIEELEKLFPDVELEIEKVEKVPVVKAPSKEEAEELAKKLPPGAKIIVEDSAG [r14_445_TrROS_Hall]” were, in that order, 0.287 ± 0.14 kcal/mol, 0.233 ± 0.36 kcal/mol and 0.324 ± 0.3 kcal/mol.
The like results for “SAMYVRITVTFETPDGTRTVTIEIPPSEVEAGKPLSEEELKALAEEIAAKDPNATITEITIERFPESLESAG [r14_373_JUSTAS]” were, in that order, 4.29 ± 0.11 kcal/mol, 3.865 ± 0.037 kcal/mol and 3.99 ± 0.075 kcal/mol.
The matching figures for “SANDAMRKMMENMSPEDMMEMVRPPVPPPPVVTIRVPIEDLPKFLQWLSEEFGVEIEREDGYLYITVTASAG [r14_7_TrROS]”: 0.623 ± 0.084 kcal/mol, 1.48 ± 0.034 kcal/mol and 1.22 ± 0.095 kcal/mol.
Take “SANDKHKYEEEYPYRNPNDPGQPMPFKREREVPVQPPPVITIDADELAKELKEQGEIKIPPDGWIAIPFSAG [r14_582_TrROS]”: the “folding stability dG unfold” value stood at 3.08 ± 0.4 kcal/mol in data set [1], 4.1 ± 0.2 kcal/mol in data set [2] and 3.51 ± 0.49 kcal/mol in data set [3].
The matching figures for “SANIQIMIEDWDPERGWIRISIQVDKGDPDKPITPELVNNIRELFRFRGIEVNIEVHPDGMVNIEIPIPSAG [r14_865_TrROS]”: 3.39 ± 0.069 kcal/mol, 4.59 ± 0.051 kcal/mol and 4.14 ± 0.094 kcal/mol.
The matching figures for “SANKNFYIIQIKWEIDGPDGRTLSFMIIVPRDDPDEFLKEAKDFIAEEFGYPIKKIEVDIHRIPPEDFPSAG [r14_104_TrROS]”: 2.76 ± 0.14 kcal/mol, 3.16 ± 0.07 kcal/mol and 3.01 ± 0.17 kcal/mol.
The matching figures for “SANMPPGDWKPINIKVKIERPGGKPEFEYPIYKHPDGMIMIFIHFPIPPGAYKIKIEFPGNGKENEFKFSAG [r14_280_TrROS]”: 1.52 ± 0.058 kcal/mol, 2.84 ± 0.09 kcal/mol and 2.29 ± 0.32 kcal/mol.
On to “SANPALYQWVTTDVVLPFETEEEALAAVEALAAARAAATGATVTVSVEVERLPDGLRVRVPVTTLVPLLSAG [r14_626_JUSTAS]”, for which the “folding stability dG unfold” value in data set [1] was determined as 1.05 ± 0.012 kcal/mol; in data set [2] it was 0.984 ± 0.099 kcal/mol; in data set [3], 1.05 ± 0.046 kcal/mol.
The like results for “SANPGKPVTIEIPVEEIRQKLNEENPDKPLTPSELKDLAKELIQRQGFPFKDVEIKSVNPGNGWIKIKVSAG [r14_303_TrROS]” were, in that order, 0.871 ± 0.095 kcal/mol, -0.538 ± 0.43 kcal/mol and 0.279 ± 0.5 kcal/mol.
As to “SANPIPLEKANITVSYTSPDGLVVTANITSVTYDPSTGKYTFTFTGTLTDPSTGTTTPVSFTVSTVTLSSAG [r14_825_JUSTAS]”, the “folding stability dG unfold” value in data set [1] is 2.68 ± 0.1 kcal/mol; in data set [2], 4.25 ± 0.099 kcal/mol; in data set [3] it was 3.79 ± 0.13 kcal/mol.
The like results for “SAPIRPGQDLKIEPEIRRYPNGSMSYTYRLEFPNGPTVHVRHTMQRDPEHGKPRHKWDIHLSPKALEAFSAG [r14_842_TrROS]” were, in that order, 1.49 ± 0.057 kcal/mol, 1.37 ± 0.09 kcal/mol and 1.41 ± 0.07 kcal/mol.
For the sequence “SAPIVIPAKAGSPENVLKAIKEAKELASKGKKVYLPILTKDGPIFFEVDPKTKTIKIYNPKTGEKKDLSSAG [r14_423_TrMRF]”, the “folding stability dG unfold” value is 1.45 ± 0.032 kcal/mol in data set [1], 1.04 ± 0.07 kcal/mol in data set [2] and 1.25 ± 0.16 kcal/mol in data set [3].
Regarding “SAPKIEILEVDPNRVLIKIDATPEEIEKIVEEIKKKFPGVKVETEKLEGEKKYLIKVIPVPEVPEELKKSAG [r14_600_TrMRF]”, the “folding stability dG unfold” value in data set [1] worked out at 0.0352 ± 0.067 kcal/mol; in data set [2], 1.44 ± 0.016 kcal/mol; in data set [3] it was 1.1 ± 0.14 kcal/mol.
The matching figures for “SAPKILKVETFPDGSIKVEIPLPETGAIVTITVDPDGNVVVEFYPPKSGKPVRKTIPGKTIEEVLKELGSAG [r14_760_TrMRF]”: 1.41 ± 0.086 kcal/mol, 1.83 ± 0.052 kcal/mol and 1.63 ± 0.12 kcal/mol.
The matching figures for “SAPLEQLLEFAEEFAQAYGYRVEIEVYRNGEPKGTYEIPMPKPGQPPVSIMIRIPDPNLYIHVTIYMPRSAG [r14_728_TrROS]”: 2.16 ± 0.071 kcal/mol, 3.07 ± 0.041 kcal/mol and 2.75 ± 0.11 kcal/mol.
The like results for “SAPLSEEEARQLLEEVAEELERETGASYRVELFRDPATGRWFGRIELPDGRVYTVTYDPATGEVTVTVEASA [r9_9_JUSTAS]” were, in that order, 4.25 ± 0.1 kcal/mol, 5.62 ± 0.069 kcal/mol and 5.62 ± 0.11 kcal/mol.
